In patent US20100041032A1:

Biological target: Nodal, endogenous in mouse F9 Cripto-/- cells (mouse) (UniProt P43021)
Assay: cell-based or functional assay

Sequence of UniProt P43021 (P43021 245-354 limits assumed): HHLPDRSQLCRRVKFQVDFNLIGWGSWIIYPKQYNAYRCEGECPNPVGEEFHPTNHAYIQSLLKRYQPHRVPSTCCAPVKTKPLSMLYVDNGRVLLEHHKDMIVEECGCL

A luciferase activity, FAST transcription factor dependent (n2)7-luciferase reporter assay in F9 Cripto-/- cells, fold increase compared with control of 4 to 6 fold was found for “human Cripto-1 (protein encoded by TDGF1) (from UniProt P13385 31-150)” in this work.
